Results published in US20180002425A1.

Columns and labels:
[1] = target: TpoR-IL6ST chimeric receptor on HEK293T SIE-bla reporter cells (clone CR2-9) (human) (UniProt P40238); experiment: cell-based or functional assay
[2] = target: wild-type human TpoR on Ba/F3-hMpl cells (human) (UniProt P40238); experiment: cell-based or functional assay
[3] = target: granulocyte colony stimulating factor receptor (UniProt Q99062)
Chain of granulocyte colony stimulating factor receptor (Q99062 25-836 limits assumed): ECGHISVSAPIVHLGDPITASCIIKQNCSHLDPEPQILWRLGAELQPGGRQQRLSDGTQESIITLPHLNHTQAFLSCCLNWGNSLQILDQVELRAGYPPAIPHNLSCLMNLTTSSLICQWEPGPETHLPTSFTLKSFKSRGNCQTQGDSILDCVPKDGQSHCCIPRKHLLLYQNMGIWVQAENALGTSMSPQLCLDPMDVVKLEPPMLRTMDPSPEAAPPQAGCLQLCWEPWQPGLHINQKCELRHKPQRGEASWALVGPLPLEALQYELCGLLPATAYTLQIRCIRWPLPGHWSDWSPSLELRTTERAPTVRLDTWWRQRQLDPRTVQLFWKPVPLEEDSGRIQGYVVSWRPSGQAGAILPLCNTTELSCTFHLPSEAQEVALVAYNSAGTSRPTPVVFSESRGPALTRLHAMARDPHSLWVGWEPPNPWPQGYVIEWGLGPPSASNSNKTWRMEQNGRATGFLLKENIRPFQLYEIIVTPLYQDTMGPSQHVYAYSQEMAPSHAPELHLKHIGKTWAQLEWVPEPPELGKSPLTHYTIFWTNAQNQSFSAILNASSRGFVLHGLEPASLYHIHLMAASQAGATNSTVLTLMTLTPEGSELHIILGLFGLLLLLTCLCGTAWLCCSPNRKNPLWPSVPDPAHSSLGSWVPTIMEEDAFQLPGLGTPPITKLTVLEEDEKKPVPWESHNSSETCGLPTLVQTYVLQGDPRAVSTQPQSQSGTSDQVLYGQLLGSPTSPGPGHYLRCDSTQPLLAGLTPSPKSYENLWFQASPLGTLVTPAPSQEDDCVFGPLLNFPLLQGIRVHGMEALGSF

Row | Substance | EC50, short-term fluorescence (FRET beta-lactamase) reporter assay [1] [nM] | EC50, long-term proliferation assay (MTS) of Ba/F3-hMPL cells [2] [nM] | Responsive Population (fraction of reporter cells in the gate, Pacific Blue-A against AmCyan-A, FRET beta-lactamase reporter; unit not given) [3]
1 | Thrombopoietin (from UniProt P40225 22-353) (ligand) | 0.02 | 0.07 | –
2 | granulocyte colony stimulating factor (from UniProt P09919 31-204) (ligand) | – | – | 84.2
